Laboratory results reported in patent US12385058B2, “Herbicide tolerance protein, encoding gene thereof and use thereof” (Beijing Dabeinong Biotechnology Co., Ltd., priority 2018, dated 2025).

Key:
[1] = assay type: biochemical; settings: for specific enzyme activity, bensulfuron-methyl / specific enzyme activity, chlorimuron-ethyl / specific enzyme activity, metsulfuron-methyl / specific enzyme activity, thifensulfuron-methyl / specific enzyme activity, tribenuron-methyl: 0.2 μg enzyme, 0.2 mM substrate, pH 7.0, 30° C., 20 min
Procedure: (§1) Each reaction was timed beginning with the addition of reactive enzyme, and was terminated with 1 mL of dichloromethane. The organic phase after delamination was dehydrated with anhydrous sodium sulfate.
(§2) The above dehydrated reaction solution was blown dry with nitrogen and filtered by adding 1 mL of methanol, and 20 μL of the filtrate was subjected to liquid chromatography-mass spectrometry (LC-MS). High performance liquid chromatography (HPLC) conditions were as follows: mobile phase being methanol:water (80:20, V/V), Zorbax XDB-C18 chromatographic column (3.5 μm, 2.1×50 mm, Agilent, USA), column temperature being room temperature, UV detector, with a detection wavelength of 255 nm, a sample injection volume of 20 μL, and a flow rate of 0.25 mL/min. The primary ion mass spectrometry conditions were as follows: ion detection mode being multi-reactive ion detection; ion polarity being negative ion; ionization mode being electrospray ionization; a capillary voltage of 4000 volts; a dry gas temperature of 330° C., a flow rate of 10 L/min, an atomizing gas pressure of 35 psi, a collision voltage of 135 volts; and a mass scan range of 300-500 m/z. The secondary ion mass spectrometry conditions were as follows: a collision voltage of 90 volts; a mass scanning range of 30-400 m/z, and other conditions being the same as those of the primary ion mass spectrometry. It was identified by LC-MS that the metabolite of thifensulfuron-methyl was thiophene sulfonic acid, and the metabolite of metsulfuron-methyl, chlorimuron-ethyl, bensulfuron-methyl, sulfometuron-methyl or tribenuron-methyl was its corresponding sulfonic acid. The amount of the generated thiophene sulfonic acid (metabolite) was detected using high performance liquid chromatography (HPLC).

[2] = Degradation of sulfometuron-methyl by purified herbicide tolerant proteins (enzymatic activity, HPLC); assay type: biochemical; settings: 0.2 μg enzyme, 0.2 mM substrate, pH 7.0, 30° C., 20 min
Procedure: as §1, §2

B1: ALT02: ALT02 protein (369 amino acids), SEQ ID NO: 19; unmutated herbicide tolerant protein (protein)
chain: METDNVELAQSKRKVVLAEQGSFYIGGRTVTGPGKFDPSKPVIPYSNEGATFYINQMYVNFQAPVRPRGLPLVFWHGGGLTGHIWESTPDGRPGFQTLFVQDRHTVYTIDQPGRGRGNIPTFNGPFGQLEEESIVNTVTGNSSKEGAWVRDRLGPAPGQFFENSQFPRGYEDNYFKEMGFSPSISSDEIVDAVVKLVTHIGPCVLVTHSASGVLGMRVATHAKNVRGIVAYEPATSIFPKGKVPEIPPLADKKSQIFPPFEIQESYFKKLAKIPIQFVFGDNIPKNPKSAYWFLDWWRVTRYAHSLSLEAINKLGGQASLLDLPTAGLRGNTHFPFTDRNNVQVASLLSDFLGKHGLDQNESKLAAALE
modifications: the amino acid sequence of ALT02
specific enzyme activity, bensulfuron-methyl [1]: 1.8 µmol/min/mg | specific enzyme activity, chlorimuron-ethyl [1]: 2.8 µmol/min/mg | specific enzyme activity, metsulfuron-methyl [1]: 2.1 µmol/min/mg | specific enzyme activity, thifensulfuron-methyl [1]: 28.8 µmol/min/mg | specific enzyme activity, tribenuron-methyl [1]: 1.9 µmol/min/mg | specific enzyme activity, sulfometuron-methyl [2]: 2.0 µmol/min/mg

B2: ALT04M1: herbicide tolerant protein, SEQ ID NO: 55; ALT04 with glycine to alanine at position 131 (protein)
chain: MSKRKVVLAEQGSFYIGGRTVTGPGKFDPSKPVIPYSNEGATFYINQMYVNFQAPVRPRGLPLVFWHGGGLTGHIWESTPDGRPGFQTLFVQDRHTVYTIDQPGRGRGNIPTFNGPFGQLEEESIVNTVTANSSKEGAWVRDRLGPAPGQFFENSQFPRGYEDNYFKEMGFSPSISSDEIVDAVVKLVTHIGPCVLVTHSASGVLGMRVATHAKNVRGIVAYEPATSIFPKGKVPEIPPLADKKSQIFPPFEIQESYFKKLAKIPIQFVFGDNIPKNPKSAYWFLDWWRVTRYAHSLSLEAINKLGGQASLLDLPTAGLRGNTHFPFTDRNNVQVASLLSDFLGKHGLDQ
modifications: the amino acid sequence of the ALT04M1
efficiency of degrading bensulfuron-methyl, fold of ALT04 [1]: 1.9 fold | efficiency of degrading thifensulfuron-methyl, fold of ALT04 [1]: 2.8 fold | specific enzyme activity, bensulfuron-methyl [1]: 3.5 µmol/min/mg | specific enzyme activity, chlorimuron-ethyl [1]: 9.4 µmol/min/mg | specific enzyme activity, metsulfuron-methyl [1]: 2.0 µmol/min/mg | specific enzyme activity, thifensulfuron-methyl [1]: 80.9 µmol/min/mg | specific enzyme activity, tribenuron-methyl [1]: 2.8 µmol/min/mg | specific enzyme activity, sulfometuron-methyl [2]: 4.9 µmol/min/mg

B3: ALT04M2: herbicide tolerant protein, SEQ ID NO: 59; ALT04 with serine to valine at position 133 (protein)
chain: MSKRKVVLAEQGSFYIGGRTVTGPGKFDPSKPVIPYSNEGATFYINQMYVNFQAPVRPRGLPLVFWHGGGLTGHIWESTPDGRPGFQTLFVQDRHTVYTIDQPGRGRGNIPTFNGPFGQLEEESIVNTVTGNVSKEGAWVRDRLGPAPGQFFENSQFPRGYEDNYFKEMGFSPSISSDEIVDAVVKLVTHIGPCVLVTHSASGVLGMRVATHAKNVRGIVAYEPATSIFPKGKVPEIPPLADKKSQIFPPFEIQESYFKKLAKIPIQFVFGDNIPKNPKSAYWFLDWWRVTRYAHSLSLEAINKLGGQASLLDLPTAGLRGNTHFPFTDRNNVQVASLLSDFLGKHGLDQ
modifications: the amino acid sequence of the ALT04M2
efficiency of degrading bensulfuron-methyl, fold of ALT04 [1]: 1.2 fold | efficiency of degrading thifensulfuron-methyl, fold of ALT04 [1]: 3.3 fold | specific enzyme activity, bensulfuron-methyl [1]: 2.2 µmol/min/mg | specific enzyme activity, chlorimuron-ethyl [1]: 8.1 µmol/min/mg | specific enzyme activity, metsulfuron-methyl [1]: 1.1 µmol/min/mg | specific enzyme activity, thifensulfuron-methyl [1]: 95.4 µmol/min/mg | specific enzyme activity, tribenuron-methyl [1]: 9.7 µmol/min/mg | specific enzyme activity, sulfometuron-methyl [2]: 3.2 µmol/min/mg

B4: ALT03M1: herbicide tolerant protein, SEQ ID NO: 39; ALT03 with glycine to alanine at position 140 (protein)
chain: METDNVELAQSKRKVVLAEQGSFYIGGRTVTGPGKFDPSKPVIPYSNEGATFYINQMYVNFQAPVRPRGLPLVFWHGGGLTGHIWESTPDGRPGFQTLFVQDRHTVYTIDQPGRGRGNIPTFNGPFGQLEEESIVNTVTANSSKEGAWVRDRLGPAPGQFFENSQFPRGYEDNYFKEMGFSPSISSDEIVDAVVKLVTHIGPCVLVTHSASGVLGMRVATHAKNVRGIVAYEPATSIFPKGKVPEIPPLADKKSQIFPPFEIQESYFKKLAKIPIQFVFGDNIPKNPKSAYWFLDWWRVTRYAHSLSLEAINKLGGQASLLDLPTAGLRGNTHFPFTDRNNVQVASLLSDFLGKHGLDQNES
modifications: the amino acid sequence of the ALT03M1
efficiency of degrading bensulfuron-methyl, fold of ALT03 [1]: 2.1 fold | efficiency of degrading thifensulfuron-methyl, fold of ALT03 [1]: 3.0 fold | specific enzyme activity, bensulfuron-methyl [1]: 3.7 µmol/min/mg | specific enzyme activity, chlorimuron-ethyl [1]: 9.9 µmol/min/mg | specific enzyme activity, metsulfuron-methyl [1]: 2.1 µmol/min/mg | specific enzyme activity, thifensulfuron-methyl [1]: 85.4 µmol/min/mg | specific enzyme activity, tribenuron-methyl [1]: 2.9 µmol/min/mg | specific enzyme activity, sulfometuron-methyl [2]: 5.1 µmol/min/mg

B5: ALT03M2: herbicide tolerant protein, SEQ ID NO: 43; ALT03 with serine to valine at position 142 (protein)
chain: METDNVELAQSKRKVVLAEQGSFYIGGRTVTGPGKFDPSKPVIPYSNEGATFYINQMYVNFQAPVRPRGLPLVFWHGGGLTGHIWESTPDGRPGFQTLFVQDRHTVYTIDQPGRGRGNIPTFNGPFGQLEEESIVNTVTGNVSKEGAWVRDRLGPAPGQFFENSQFPRGYEDNYFKEMGFSPSISSDEIVDAVVKLVTHIGPCVLVTHSASGVLGMRVATHAKNVRGIVAYEPATSIFPKGKVPEIPPLADKKSQIFPPFEIQESYFKKLAKIPIQFVFGDNIPKNPKSAYWFLDWWRVTRYAHSLSLEAINKLGGQASLLDLPTAGLRGNTHFPFTDRNNVQVASLLSDFLGKHGLDQNES
modifications: the amino acid sequence of the ALT03M2
efficiency of degrading bensulfuron-methyl, fold of ALT03 [1]: 1.3 fold | efficiency of degrading thifensulfuron-methyl, fold of ALT03 [1]: 3.5 fold | specific enzyme activity, bensulfuron-methyl [1]: 2.3 µmol/min/mg | specific enzyme activity, chlorimuron-ethyl [1]: 8.6 µmol/min/mg | specific enzyme activity, metsulfuron-methyl [1]: 1.1 µmol/min/mg | specific enzyme activity, thifensulfuron-methyl [1]: 100.7 µmol/min/mg | specific enzyme activity, tribenuron-methyl [1]: 10.3 µmol/min/mg | specific enzyme activity, sulfometuron-methyl [2]: 3.3 µmol/min/mg

B6: ALT03: ALT03 protein (362 amino acids), SEQ ID NO: 35; unmutated herbicide tolerant protein (protein)
chain: METDNVELAQSKRKVVLAEQGSFYIGGRTVTGPGKFDPSKPVIPYSNEGATFYINQMYVNFQAPVRPRGLPLVFWHGGGLTGHIWESTPDGRPGFQTLFVQDRHTVYTIDQPGRGRGNIPTFNGPFGQLEEESIVNTVTGNSSKEGAWVRDRLGPAPGQFFENSQFPRGYEDNYFKEMGFSPSISSDEIVDAVVKLVTHIGPCVLVTHSASGVLGMRVATHAKNVRGIVAYEPATSIFPKGKVPEIPPLADKKSQIFPPFEIQESYFKKLAKIPIQFVFGDNIPKNPKSAYWFLDWWRVTRYAHSLSLEAINKLGGQASLLDLPTAGLRGNTHFPFTDRNNVQVASLLSDFLGKHGLDQNES
modifications: the amino acid sequence of ALT03
specific enzyme activity, bensulfuron-methyl [1]: 1.6 µmol/min/mg | specific enzyme activity, chlorimuron-ethyl [1]: 2.6 µmol/min/mg | specific enzyme activity, metsulfuron-methyl [1]: 1.9 µmol/min/mg | specific enzyme activity, thifensulfuron-methyl [1]: 26.0 µmol/min/mg | specific enzyme activity, tribenuron-methyl [1]: 1.7 µmol/min/mg | specific enzyme activity, sulfometuron-methyl [2]: 1.8 µmol/min/mg

B7: ALT03M3: herbicide tolerant protein, SEQ ID NO: 47; ALT03 mutated at positions 44, 45, 140, 142 and 146 (protein)
chain: METDNVELAQSKRKVVLAEQGSFYIGGRTVTGPGKFDPSKPVIRASNEGATFYINQMYVNFQAPVRPRGLPLVFWHGGGLTGHIWESTPDGRPGFQTLFVQDRHTVYTIDQPGRGRGNIPTFNGPFGQLEEESIVNTVTANVSKERAWVRDRLGPAPGQFFENSQFPRGYEDNYFKEMGFSPSISSDEIVDAVVKLVTHIGPCVLVTHSASGVLGMRVATHAKNVRGIVAYEPATSIFPKGKVPEIPPLADKKSQIFPPFEIQESYFKKLAKIPIQFVFGDNIPKNPKSAYWFLDWWRVTRYAHSLSLEAINKLGGQASLLDLPTAGLRGNTHFPFTDRNNVQVASLLSDFLGKHGLDQNES
modifications: The amino acid sequence of the ALT03M3
efficiency of degrading chlorimuron-ethyl, fold of ALT03 [1]: 13.0 fold | efficiency of degrading chlorimuron-ethyl, fold of ALT04 [1]: 12.4 fold | efficiency of degrading metsulfuron-methyl, fold of ALT03 [1]: 1.9 fold | efficiency of degrading metsulfuron-methyl, fold of ALT04 [1]: 1.8 fold | specific enzyme activity, bensulfuron-methyl [1]: 0.6 µmol/min/mg | specific enzyme activity, chlorimuron-ethyl [1]: 36.5 µmol/min/mg | specific enzyme activity, metsulfuron-methyl [1]: 4.0 µmol/min/mg | specific enzyme activity, thifensulfuron-methyl [1]: 16.9 µmol/min/mg | specific enzyme activity, tribenuron-methyl [1]: 3.1 µmol/min/mg | specific enzyme activity, sulfometuron-methyl [2]: 1.0 µmol/min/mg
